What all share (experiment): cleavage_in_vitro
Series [1] deals with T1, OMNI-98 (metagenomic, unknown).
T1 sequence: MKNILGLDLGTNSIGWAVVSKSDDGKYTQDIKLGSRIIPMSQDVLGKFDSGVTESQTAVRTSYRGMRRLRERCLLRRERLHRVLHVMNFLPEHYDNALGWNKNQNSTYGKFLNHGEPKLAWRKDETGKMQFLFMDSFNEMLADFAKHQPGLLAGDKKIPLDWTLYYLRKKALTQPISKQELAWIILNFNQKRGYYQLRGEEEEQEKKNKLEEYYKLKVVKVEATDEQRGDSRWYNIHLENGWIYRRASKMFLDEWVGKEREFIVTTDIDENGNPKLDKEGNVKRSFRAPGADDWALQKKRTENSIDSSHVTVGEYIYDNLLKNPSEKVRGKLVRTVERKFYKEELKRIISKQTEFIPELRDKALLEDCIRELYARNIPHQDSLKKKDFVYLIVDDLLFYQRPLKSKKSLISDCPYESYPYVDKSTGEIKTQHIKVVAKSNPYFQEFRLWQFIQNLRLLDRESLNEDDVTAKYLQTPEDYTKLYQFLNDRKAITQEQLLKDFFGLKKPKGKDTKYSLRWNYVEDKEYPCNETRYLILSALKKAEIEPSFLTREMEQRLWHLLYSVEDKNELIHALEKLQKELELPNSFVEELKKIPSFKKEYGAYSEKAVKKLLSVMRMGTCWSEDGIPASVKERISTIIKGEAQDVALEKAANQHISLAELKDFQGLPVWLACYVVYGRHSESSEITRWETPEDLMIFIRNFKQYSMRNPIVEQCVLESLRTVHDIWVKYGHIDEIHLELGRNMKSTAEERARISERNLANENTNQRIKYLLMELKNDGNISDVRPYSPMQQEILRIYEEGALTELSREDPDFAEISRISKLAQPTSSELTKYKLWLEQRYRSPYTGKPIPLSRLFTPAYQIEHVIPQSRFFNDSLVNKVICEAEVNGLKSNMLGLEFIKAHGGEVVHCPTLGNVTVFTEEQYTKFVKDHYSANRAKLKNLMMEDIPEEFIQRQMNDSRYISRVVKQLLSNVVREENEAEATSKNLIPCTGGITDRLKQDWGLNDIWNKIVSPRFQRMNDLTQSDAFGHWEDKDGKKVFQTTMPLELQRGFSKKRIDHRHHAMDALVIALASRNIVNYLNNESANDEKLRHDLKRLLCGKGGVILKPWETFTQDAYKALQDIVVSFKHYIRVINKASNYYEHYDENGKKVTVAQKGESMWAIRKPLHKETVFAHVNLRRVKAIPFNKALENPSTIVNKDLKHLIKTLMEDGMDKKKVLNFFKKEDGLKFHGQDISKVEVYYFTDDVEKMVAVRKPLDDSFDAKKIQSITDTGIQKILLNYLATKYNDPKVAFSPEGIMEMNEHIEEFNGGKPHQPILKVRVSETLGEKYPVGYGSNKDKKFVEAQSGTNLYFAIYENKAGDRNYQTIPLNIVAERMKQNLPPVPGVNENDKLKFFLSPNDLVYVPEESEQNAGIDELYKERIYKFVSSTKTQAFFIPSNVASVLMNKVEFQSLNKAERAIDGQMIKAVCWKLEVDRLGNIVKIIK
As to conditions: TXTL; PAM NNAAATNN

Series [2] relates to T2, OMNI-106 (metagenomic, unknown).
T2 sequence: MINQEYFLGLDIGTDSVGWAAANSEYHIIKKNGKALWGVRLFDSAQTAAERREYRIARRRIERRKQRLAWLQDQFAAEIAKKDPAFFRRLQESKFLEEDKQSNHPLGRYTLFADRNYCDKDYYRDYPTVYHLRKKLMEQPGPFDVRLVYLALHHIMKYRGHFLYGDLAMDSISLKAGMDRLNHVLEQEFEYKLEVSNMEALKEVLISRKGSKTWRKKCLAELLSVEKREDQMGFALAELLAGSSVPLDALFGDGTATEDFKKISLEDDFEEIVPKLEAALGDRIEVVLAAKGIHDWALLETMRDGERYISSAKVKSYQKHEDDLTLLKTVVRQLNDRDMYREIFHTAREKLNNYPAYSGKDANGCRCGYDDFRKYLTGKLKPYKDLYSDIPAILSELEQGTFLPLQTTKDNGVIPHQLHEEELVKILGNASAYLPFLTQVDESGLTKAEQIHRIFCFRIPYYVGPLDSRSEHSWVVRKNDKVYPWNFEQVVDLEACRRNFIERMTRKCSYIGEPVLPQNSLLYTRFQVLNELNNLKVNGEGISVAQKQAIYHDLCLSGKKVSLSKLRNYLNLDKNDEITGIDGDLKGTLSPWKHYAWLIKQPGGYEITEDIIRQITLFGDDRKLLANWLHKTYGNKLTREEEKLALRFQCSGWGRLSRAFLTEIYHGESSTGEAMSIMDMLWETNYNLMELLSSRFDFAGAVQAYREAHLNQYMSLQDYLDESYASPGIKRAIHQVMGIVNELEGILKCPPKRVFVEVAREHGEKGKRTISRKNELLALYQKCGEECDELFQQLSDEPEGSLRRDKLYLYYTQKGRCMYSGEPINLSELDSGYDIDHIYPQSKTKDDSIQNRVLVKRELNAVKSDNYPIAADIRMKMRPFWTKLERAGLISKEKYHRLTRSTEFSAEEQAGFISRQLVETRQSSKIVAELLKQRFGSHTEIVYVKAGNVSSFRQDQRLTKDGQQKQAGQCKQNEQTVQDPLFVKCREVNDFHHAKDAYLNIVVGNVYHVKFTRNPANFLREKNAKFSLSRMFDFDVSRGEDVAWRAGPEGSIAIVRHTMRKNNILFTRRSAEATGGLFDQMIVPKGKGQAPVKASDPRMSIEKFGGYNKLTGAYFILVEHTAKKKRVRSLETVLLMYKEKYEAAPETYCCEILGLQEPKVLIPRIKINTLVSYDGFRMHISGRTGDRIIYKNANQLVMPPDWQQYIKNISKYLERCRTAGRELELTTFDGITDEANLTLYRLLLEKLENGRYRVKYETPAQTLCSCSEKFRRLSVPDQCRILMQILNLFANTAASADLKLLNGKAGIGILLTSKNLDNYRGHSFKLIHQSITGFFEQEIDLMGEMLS
As to conditions: TXTL; PAM NRKAACNN

Series [3] concerns T3, OMNI-99 (metagenomic, unknown).
T3 sequence: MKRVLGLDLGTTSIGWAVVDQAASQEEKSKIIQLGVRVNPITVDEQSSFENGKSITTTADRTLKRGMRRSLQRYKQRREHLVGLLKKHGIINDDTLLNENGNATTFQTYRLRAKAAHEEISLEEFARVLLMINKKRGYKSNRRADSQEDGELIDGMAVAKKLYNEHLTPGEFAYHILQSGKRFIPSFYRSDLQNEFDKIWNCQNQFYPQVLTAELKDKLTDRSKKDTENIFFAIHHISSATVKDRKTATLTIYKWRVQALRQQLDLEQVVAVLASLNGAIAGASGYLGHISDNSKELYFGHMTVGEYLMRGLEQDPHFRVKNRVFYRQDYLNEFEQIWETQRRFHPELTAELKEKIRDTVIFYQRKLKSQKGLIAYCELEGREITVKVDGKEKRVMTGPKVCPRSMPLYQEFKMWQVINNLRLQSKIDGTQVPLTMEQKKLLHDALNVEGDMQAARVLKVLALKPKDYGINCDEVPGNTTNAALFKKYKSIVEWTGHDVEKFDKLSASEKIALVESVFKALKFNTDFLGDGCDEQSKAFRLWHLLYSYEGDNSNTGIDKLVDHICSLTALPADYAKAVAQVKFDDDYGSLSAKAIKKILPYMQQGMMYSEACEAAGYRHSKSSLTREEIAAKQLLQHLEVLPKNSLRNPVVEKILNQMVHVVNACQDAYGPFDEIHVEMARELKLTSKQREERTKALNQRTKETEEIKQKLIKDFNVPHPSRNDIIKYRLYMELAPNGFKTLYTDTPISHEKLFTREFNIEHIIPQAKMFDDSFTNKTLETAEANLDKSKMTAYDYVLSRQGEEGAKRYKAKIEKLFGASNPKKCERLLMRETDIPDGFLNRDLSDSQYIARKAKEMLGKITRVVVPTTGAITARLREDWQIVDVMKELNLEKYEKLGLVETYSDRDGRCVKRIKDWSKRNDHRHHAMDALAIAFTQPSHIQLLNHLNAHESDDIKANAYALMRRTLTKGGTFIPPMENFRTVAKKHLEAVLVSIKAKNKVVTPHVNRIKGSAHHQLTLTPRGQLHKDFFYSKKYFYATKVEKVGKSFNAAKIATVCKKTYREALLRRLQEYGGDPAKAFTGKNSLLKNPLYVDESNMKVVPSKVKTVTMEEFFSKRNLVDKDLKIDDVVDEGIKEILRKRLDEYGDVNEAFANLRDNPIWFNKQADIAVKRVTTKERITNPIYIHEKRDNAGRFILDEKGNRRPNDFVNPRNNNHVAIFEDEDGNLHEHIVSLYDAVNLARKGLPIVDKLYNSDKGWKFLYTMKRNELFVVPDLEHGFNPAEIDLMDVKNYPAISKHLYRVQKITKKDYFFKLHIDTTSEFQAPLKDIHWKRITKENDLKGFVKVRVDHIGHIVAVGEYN
Particulars: TXTL; PAM NAGACNNN

The subject of series [4] is T4, OMNI-96 (metagenomic, unknown).
T4 sequence: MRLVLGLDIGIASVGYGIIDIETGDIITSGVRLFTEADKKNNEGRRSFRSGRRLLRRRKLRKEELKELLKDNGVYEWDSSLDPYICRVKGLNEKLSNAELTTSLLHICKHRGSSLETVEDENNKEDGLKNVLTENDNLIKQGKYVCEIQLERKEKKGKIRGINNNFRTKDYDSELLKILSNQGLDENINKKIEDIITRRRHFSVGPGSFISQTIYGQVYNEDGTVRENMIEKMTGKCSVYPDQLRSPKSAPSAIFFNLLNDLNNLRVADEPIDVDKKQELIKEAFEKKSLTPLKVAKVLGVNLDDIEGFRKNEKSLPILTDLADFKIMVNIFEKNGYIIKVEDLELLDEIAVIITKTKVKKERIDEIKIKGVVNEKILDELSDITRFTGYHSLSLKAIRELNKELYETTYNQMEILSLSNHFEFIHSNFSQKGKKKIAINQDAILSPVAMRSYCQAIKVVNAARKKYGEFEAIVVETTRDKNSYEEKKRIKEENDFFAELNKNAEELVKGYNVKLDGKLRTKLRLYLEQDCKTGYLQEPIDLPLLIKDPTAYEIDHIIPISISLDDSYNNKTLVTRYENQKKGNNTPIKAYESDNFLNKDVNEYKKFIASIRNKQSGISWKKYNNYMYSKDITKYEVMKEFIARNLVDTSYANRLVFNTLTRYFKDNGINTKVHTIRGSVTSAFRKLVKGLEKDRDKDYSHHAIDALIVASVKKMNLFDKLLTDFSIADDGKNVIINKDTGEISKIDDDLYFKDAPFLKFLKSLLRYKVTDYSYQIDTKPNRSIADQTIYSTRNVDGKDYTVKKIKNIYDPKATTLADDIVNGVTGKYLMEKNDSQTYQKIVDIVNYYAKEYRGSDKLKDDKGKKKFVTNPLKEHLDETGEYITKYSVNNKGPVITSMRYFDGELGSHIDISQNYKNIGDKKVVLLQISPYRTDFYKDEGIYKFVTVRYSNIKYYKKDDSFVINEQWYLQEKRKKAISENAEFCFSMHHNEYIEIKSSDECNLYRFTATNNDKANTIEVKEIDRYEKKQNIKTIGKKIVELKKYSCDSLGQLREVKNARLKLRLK
As to conditions: TXTL; PAM NYAAGNNN

Turning to “GGAAGAGCAGAGCCUUGGUCUCGUUGUGAAUUGCUUUCGAAAGAAAGCAAUUCACAAUAAGGAUUAUUCCGUUGUGAAAACAUUUAGGACGGGGCAACUCGUCCUUUGUUUUUUU / GGAAGAGCAGAGCCTTGGTCTCNNNNNNNN / NNNNNNNNGAGACCAAGGCTCTGCTCTTCC [T2 sgRNA 9 V1 ; T2 protospacer + 8N PAM library (pbPOS T2)]”, the activity (1-depletion score) in series [1] was found to be 0.93. In series [2], “GGAAGAGCAGAGCCUUGGUCUCGUUUGAGAGUCGUGCUGGAAACAACACGACGGGUUCAAAUACGGCUUUGCCAAAACCGCUGGUUUGAUCCAGCUUCACAGUGUGUGAGGGUAAAAAGUCCGCUAUGCGGACUUUUUUU / GGAAGAGCAGAGCCTTGGTCTCNNNNNNNN / NNNNNNNNGAGACCAAGGCTCTGCTCTTCC [T2 sgRNA 15 V1 ; T2 protospacer + 8N PAM library (pbPOS T2)]” came in with an activity (1-depletion score) of 0.95. For “GGAAGAGCAGAGCCUUGGUCUCGUUGUGAAUUGCUUUCGAAAGAAGCAAUUCACAAUAAGGAUUAUUCCGUUGUGAAAACAUCAGGAGCGGGUUCUACUCGCUCUUUUUU / GGAAGAGCAGAGCCTTGGTCTCNNNNNNNN / NNNNNNNNGAGACCAAGGCTCTGCTCTTCC [T2 sgRNA 10 V1 ; T2 protospacer + 8N PAM library (pbPOS T2)]”, the activity (1-depletion score) in series [3] amounted to 0.93.

In turn, “GGAAGAGCAGAGCCUUGGUCUCGUUUUGCUACCCUAAAUUAGAAAAAUAUUAGGACCUAGCAAAACAAGGCUUUAUGCCGAAAUCGGAGUCGACGGGCUCCUUUUUU / GGAAGAGCAGAGCCTTGGTCTCNNNNNNNN / NNNNNNNNGAGACCAAGGCTCTGCTCTTCC [T2 sgRNA 7 V1 ; T2 protospacer + 8N PAM library (pbPOS T2)]” registered an activity (1-depletion score) in series [4] of 0.57.

The record behind these values is patent US20240425885.
